This assay addresses soluble CD4 (UniProt P01730). Put plainly: SPR.
In general, Kd refers to the free concentration of one partner at which half of the binding sites on the other are occupied at equilibrium, for simple one-to-one binding. With “HIV-1 YU-2 gp120 A281G (natural protein)”, the Kd was found to be 12.3 nM.

With “HIV-1 YU-2 gp120 I420R (natural protein)”, the Kd is 24.8 nM.

In turn, “HIV-1 YU-2 gp120 I423M/N425K/G431E (natural protein)” displayed a Kd of 78.1 nM.

On to “HIV-1 YU-2 gp120 K282A (natural protein)”, for which the Kd amounted to 11.9 nM. Against the preceding substance, the Kd is about 6.6-fold lower.

“HIV-1 YU-2 gp120 N279A (natural protein)” had a dissociation constant Kd of 34.6 nM.

Take “HIV-1 YU-2 gp120 N280A (natural protein)”: the Kd is 6.8 nM.

As for “HIV-1 YU-2 gp120 P124A (natural protein)”, the Kd was determined as 26.2 nM.

With “HIV-1 YU-2 gp120 R456A (natural protein)”, the Kd amounted to 11.3 nM.

In turn, “HIV-1 YU-2 gp120 S375W/T257S (natural protein)” gave a dissociation constant (Kd) of 0.9 nM.

“HIV-1 YU-2 gp120 T278A (natural protein)”: the Kd stood at 7.3 nM. This Kd is about 8.1-fold higher than that of the substance before.

Substance “HIV-1 YU-2 gp120 T283A (natural protein)” returned a dissociation constant (Kd) of 16.7 nM.

The values above are taken from publication PMC3088361.
